Patent US20250320277A1 (ALBERT EINSTEIN COLLEGE OF MEDICINE, published 2025)

Assays:
MAYV p62-E1 [1] = target: T1, MAYV p62-E1 (Mayaro virus (BeAr 20290))
MAYV p62-E1 [2] = target: T1, MAYV p62-E1; experiment: BLI, […], global 1:1 fit; […]
MAYV p62-E1 [3] = target: T1, MAYV p62-E1; experiment: ELISA, plate-coated p62-E1, eight-point mAb dilution

Binder | koff (MAYV p62-E1 [1]) [s⁻¹] | kon (MAYV p62-E1 [1]) [M⁻¹ s⁻¹] | Kd (MAYV p62-E1 [2]) [nM] | EC50 (MAYV p62-E1 [3]) [nM]
DC2.M301 (antibody, V domains shown) VH: QVQLVQSGAEVKKPGAAVKVSCKASGYTFSGYYIHWVRQAPGQGLEWMGWINPNSGGTDFAQKFQGRVTMTRDTSISTAYMELSRLRSDDTAVYLCSRDPGYTYGYPLGYWGQGTLVTVSS VL: ETTLTQSPGTLSLSPGERATLSCRASQSVSSSYLAWYQQKPGQAPRLLIYGTSSRATGIPDRFSGRGSGTDFTLTISRLEPEDFAVYYCQQYGNSPPYTFGQGTKVDIK | 0.0047 | 300000 | 15 | 4.6
DC2.M17 (antibody, V domains shown) VH: EVQLVESGSELKKPGASVRVSCEASGYSFTSHTIVWMRQAPGQGLECLGWINTNTGNPTYAQGFTGRFVFSLDTSVSTAYLQISSLKAADTAVYYCARVLKCLGGSASCSGHGYYDYGMAVWGQGTTVTVSS VL: DIVLTQSPLSLPVTPGEPASISCRSSQSLLHSNGYNFLHWYLQKPGQSPQLLIYLGSIRASGVPDRFSGSGSGTDFTLKISRVEAEDVGVYYCMQALQTFMYTFGQGTKLEIK |  |  |  | 1.9
DC2.M287 (antibody, V domains shown) VH: EVQLVESGGGLVQPGGSLRLSCAASGFTFRDYWMIWVRQTPGKGLEWVANINRNGNEKHYVDSLKGRFTISRDNTKNSLYLQVNGLSAEDTAVYYCVRDSSPSFGPGNYYDAFDIWGQGTTVTVSS VL: DIRVTQSPSSLSASVGDRVTITCRASQDIRNEVGWYQQKPGQAPKVLIFAASTLQSGVPSRFRGSGSGTVFTLTISSLQPEDLATYYCLQDFNYPRTFGQGTKVDIK |  |  |  | 220
